One block for each molecule: values may come before it.
Experiments:
[1] = target: Megasphaera NM10-related Cas1 (Megasphaera NM10-related); assay: cryo-EM structure; 50 µM Cas1, 50 µM Cas2/DEDDh and 12.5 µM prespacer or half-site DNA mixed, dialysed 2 h at room temperature, purified over Superose 6 Increase 10/300 GL; complexes bound to DNA
[2] = target: Megasphaera NM10-related Cas2 and DEDDh fusion protein (Cas2/DEDDh) (Megasphaera NM10-related); assay: as above
[3] = target: T1, Cas1 (type I-E);Cas2/DEDDh (natural Cas2-DEDDh fusion) (Megasphaera NM10-related;Megasphaera …, UniProt A0AA82WPF9;A0AA82WPG7 1-316;1-289, |); assay: cryo-EM structure (2.9 A); Cryo-EM sample buffer not in the material; DNA annealed in 20 mM HEPES pH 7.5, 25 mM KCl, 10 mM MgCl2; protein storage 20 mM HEPES pH 7.5, 500 mM KCl, 1 mM TCEP, 5% glycerol; settings: protein: recombinant;recombinant; tags: 10xHis-MBP removed with TEV;10xHis-MBP removed with TEV; chain copies: 4;2; 23 bp duplex, 3' overhangs 15 nt on both strands (5 nt visible)
T1 sequence 1: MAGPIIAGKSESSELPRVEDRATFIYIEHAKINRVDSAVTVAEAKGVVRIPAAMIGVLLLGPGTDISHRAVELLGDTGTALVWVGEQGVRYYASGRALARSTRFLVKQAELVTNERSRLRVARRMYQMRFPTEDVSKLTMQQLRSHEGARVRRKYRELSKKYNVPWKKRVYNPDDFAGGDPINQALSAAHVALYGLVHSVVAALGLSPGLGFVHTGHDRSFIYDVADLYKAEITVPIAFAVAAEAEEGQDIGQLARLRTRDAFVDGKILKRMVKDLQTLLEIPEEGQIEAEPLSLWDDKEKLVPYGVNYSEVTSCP
T1 sequence 2: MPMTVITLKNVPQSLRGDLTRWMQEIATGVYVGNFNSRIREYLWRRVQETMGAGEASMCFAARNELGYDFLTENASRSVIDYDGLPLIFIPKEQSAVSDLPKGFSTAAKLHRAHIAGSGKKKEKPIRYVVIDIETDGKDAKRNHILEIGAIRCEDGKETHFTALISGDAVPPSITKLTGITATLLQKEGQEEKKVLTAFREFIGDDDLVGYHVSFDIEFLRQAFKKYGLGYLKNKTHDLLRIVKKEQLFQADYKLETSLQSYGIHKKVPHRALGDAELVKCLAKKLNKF

[4] = target: T1, Cas1 (type I-E);Cas2/DEDDh (natural …); assay: cryo-EM structure (3.1 A); Cryo-EM sample buffer not in the material; DNA annealed in 20 mM HEPES pH 7.5, 25 mM KCl, 10 mM MgCl2; protein storage 20 mM HEPES pH 7.5, 500 mM KCl, 1 mM TCEP, 5% glycerol; settings: protein: recombinant;recombinant; tags: 10xHis-MBP removed with TEV;10xHis-MBP removed with TEV; chain copies: 4;2; 23 bp duplex, 3' overhangs 15 nt on both strands before trimming

B1: CryoEM prespacer, PAM-deficient (dsDNA)
DNA 1: ACTCATGATGCACAAGTGGTTGCGCGTGAACCCAGTTG
DNA 2: GCAACCACTTGTGCATCATGAGTGATGAAACCCAGTTG
modifications: phosphorothioate between nt 28 and 29 of each strand
binding result [3]: binds

B2: CryoEM prespacer, TT PAM-containing (dsDNA)
DNA 1: ACTCATGATGCACAAGTGGTTGCGCGTGTTCCCAGTTG
DNA 2: GCAACCACTTGTGCATCATGAGTGATGAAACCCAGTTG
modifications: phosphorothioate between nt 33 and 34 of strand 1 and between nt 28 and 29 of strand 2
binding result [4]: binds

The next lines start with the values.

stoichiometry N [1]: 2
Molecule: Megasphaera NM10-related Cas1 (enzyme)

stoichiometry N [2]: 2
Molecule: Megasphaera NM10-related Cas2 and DEDDh fusion protein (Cas2/DEDDh) (enzyme)
